In patent US20050048073A1, “Methods of determining west nile virus epitopes and method of using the same” (priority 2001, published 2005):
Where “and” joins values, the source holds several entries; their conditions need not be identical. Equal entries are not always repeated.

Assays:
HLA B*07 (human) [1] = assay: T2B7 HLA stabilisation assay, flow cytometry, 10/20/200 ug/ml, four assays; conditions: for Binding results (total of four assays): scale: of 3 concentrations positive
HLA B*07 (human) [2] = assay: T2B7 HLA stabilisation assay, flow cytometry, peptide at 200 ug/ml

Binder	Binding number (binding score) (HLA B*07 (human) [1])	Binding results (total of four assays) (HLA B*07 (human) [1]; in 4 assays)	Avg. Fold Inc. @ 200 (fold over background) (HLA B*07 (human) [2])	Avg. MFI 200 (HLA B*07 (human) [2])	Binding results (total of four assays) (of 3 concentrations positive, in 1 assay) (HLA B*07 (human) [1])	Binding results (total of four assays) (HLA B*07 (human) [1]; in 3 assays)	Binding results (total of four assays) (HLA B*07 (human) [1]; in 2 assays)
RPAADGRTVM [WNVB7 0023]	12	3	1.5	979 MFI			
IPAGFEPEML [WNVB7 0008]	10		1.9	1210 MFI	1	3	
RPQRHDEKTL [WNVB7 0019]	11		2.8	1640 MFI	2	3	
GPGHEEPQLV [WNVB7 0011]	2		1	849 MFI	2		
EPPEGVKYVL [WNVB7 0013]	6		1.1	682 MFI	3 and 2 and 1		
VPGTKIAGML [WNVB7 0018]	6		1.7	1090 MFI	3 and 2		1
SPHRVPNYNL [WNVB7 0020]	12	3	2.5	1610 MFI			
VPCRGQDELV [WNVB7 0010]	4		1	659 MFI			2
RPRWIDARVY [WNVB7 0017]	11		1.9	1710 MFI	2	3	
TPAAPSYTLK [WNVB7 0009]	8		1.5	954 MFI	3 and 1		2
KPTGSASSLV [WNVB7 0015]	6		1.7	1070 MFI			2 and 1
PEDIDCWCTK [WNVB7 3399]	1		1.1	990 MFI	1		
PETPQGLAKI [WNVB7 3403]	0	0	1	589 MFI			
TPGLRCLNLD [WNVB7 0024]	2		1	850 MFI			1
